From PMC517823
pKd, pKi: −log10 of the molar value.

Molecular target: Ffh (UniProt P0AGD7)
Assay: other; GTP; inhibition assay
Conditions: domain or fragment

Ffh (UniProt P0AGD7), sequence (P0AGD7 whole entry): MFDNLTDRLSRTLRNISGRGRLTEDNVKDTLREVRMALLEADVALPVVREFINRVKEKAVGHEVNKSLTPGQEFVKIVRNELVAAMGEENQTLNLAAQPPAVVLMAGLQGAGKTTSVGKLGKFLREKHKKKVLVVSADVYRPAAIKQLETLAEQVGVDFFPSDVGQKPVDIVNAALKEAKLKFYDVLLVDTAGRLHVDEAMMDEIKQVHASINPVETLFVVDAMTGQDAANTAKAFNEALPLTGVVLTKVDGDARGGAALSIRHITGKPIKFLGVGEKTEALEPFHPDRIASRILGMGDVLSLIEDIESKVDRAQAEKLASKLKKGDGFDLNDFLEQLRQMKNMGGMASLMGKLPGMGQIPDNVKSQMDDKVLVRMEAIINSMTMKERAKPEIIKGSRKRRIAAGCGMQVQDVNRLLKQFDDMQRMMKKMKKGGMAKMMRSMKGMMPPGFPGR
wild-type FtsY(47-497) (from UniProt P10121) G454(253)W, sequence (P10121 47-497, change not shown): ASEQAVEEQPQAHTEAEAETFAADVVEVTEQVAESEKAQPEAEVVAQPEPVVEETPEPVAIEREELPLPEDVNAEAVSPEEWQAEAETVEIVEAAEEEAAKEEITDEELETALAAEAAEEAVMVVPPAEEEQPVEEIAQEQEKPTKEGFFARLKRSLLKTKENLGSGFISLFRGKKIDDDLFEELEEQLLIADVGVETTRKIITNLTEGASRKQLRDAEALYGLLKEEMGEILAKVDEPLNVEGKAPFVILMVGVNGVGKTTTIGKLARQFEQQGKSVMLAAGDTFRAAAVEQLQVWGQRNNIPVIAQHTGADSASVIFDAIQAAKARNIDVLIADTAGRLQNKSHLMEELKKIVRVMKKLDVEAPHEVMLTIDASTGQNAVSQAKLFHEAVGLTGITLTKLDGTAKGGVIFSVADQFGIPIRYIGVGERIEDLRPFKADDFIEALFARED
wild-type FtsY(47-497) (from UniProt P10121) R386(191)A, sequence (P10121 47-497, change not shown): as above
wild-type FtsY(47-497) (from UniProt P10121) Q339(144)A, sequence (P10121 47-497, change not shown): as above
wild-type FtsY(47-497) (from UniProt P10121) K453(252)E, sequence (P10121 47-497, change not shown): as above
wild-type FtsY(47-497) (from UniProt P10121) D479(278)A, sequence (P10121 47-497, change not shown): as above
wild-type FtsY(47-497) (from UniProt P10121) K306(111)A, sequence (P10121 47-497, change not shown): as above
wild-type FtsY(47-497) (from UniProt P10121) D330(135)A, sequence (P10121 47-497, change not shown): as above
FtsY Arg386(191) mutant, sequence (P10121 47-497, change not shown): as above
wild-type FtsY(47-497) (from UniProt P10121) T307(112)W, sequence (P10121 47-497, change not shown): as above
wild-type FtsY(47-497) (from UniProt P10121) D382(187)A, sequence (P10121 47-497, change not shown): as above
wild-type FtsY(47-497) (from UniProt P10121) K312(117)A, sequence (P10121 47-497, change not shown): as above
wild-type FtsY(47-497) (from UniProt P10121) K447(246)A, sequence (P10121 47-497, change not shown): as above
Ffh (from UniProt P0AGD7), sequence (P0AGD7 whole entry): as the sequence (P0AGD7 whole entry) above

“FtsY Arg386(191) mutant (from UniProt P10121 47-497)” showed a pKi of 6.92.

Molecular target: Ffh (UniProt P0AGD7)
Assay: inhibition assay
Conditions: not given

Point of comparison: “wild-type FtsY(47-497) (from UniProt P10121) K453(252)E”, pKi 5.51. Against it:
- wild-type FtsY(47-497) (from UniProt P10121) A336(141)W — 1.29 log units higher, 6.80
- wild-type FtsY(47-497) (from UniProt P10121) N302(107)W — 1.34 log units higher, 6.85
- wild-type FtsY(47-497) (from UniProt P10121) R333(138)A — 1.11 log units higher, 6.62
- wild-type FtsY(47-497) (from UniProt P10121) T307(112)A — 0.36 log units lower, 5.15
- wild-type FtsY(47-497) (from UniProt P10121) K447(246)A — 0.55 log units lower, 4.96
- wild-type FtsY(47-497) (from UniProt P10121) N302(107)A — 1.45 log units higher, 6.96
- wild-type FtsY(47-497) (from UniProt P10121) G454(253)W — within 0.2 log units, 5.38
- wild-type FtsY(47-497) (from UniProt P10121) T307(112)W — 0.51 log units lower, 5.00
- wild-type FtsY(47-497) (from UniProt P10121) K312(117)A — within 0.2 log units, 5.62
- wild-type FtsY(47-497) (from UniProt P10121) D382(187)A — 0.94 log units lower, 4.57
- wild-type FtsY(47-497) (from UniProt P10121) K306(111)A — within 0.2 log units, 5.46
- wild-type FtsY(47-497) (from UniProt P10121) D330(135)A — within 0.2 log units, 5.62
- wild-type FtsY(47-497) (from UniProt P10121) D479(278)A — within 0.2 log units, 5.55
- wild-type FtsY(47-497) (from UniProt P10121) R386(191)A — 1.41 log units higher, 6.92
- wild-type FtsY(47-497) (from UniProt P10121) Q339(144)A — within 0.2 log units, 5.41

Molecular target: FtsY (Escherichia coli) (UniProt P10121)
Sequence (P10121 2-497): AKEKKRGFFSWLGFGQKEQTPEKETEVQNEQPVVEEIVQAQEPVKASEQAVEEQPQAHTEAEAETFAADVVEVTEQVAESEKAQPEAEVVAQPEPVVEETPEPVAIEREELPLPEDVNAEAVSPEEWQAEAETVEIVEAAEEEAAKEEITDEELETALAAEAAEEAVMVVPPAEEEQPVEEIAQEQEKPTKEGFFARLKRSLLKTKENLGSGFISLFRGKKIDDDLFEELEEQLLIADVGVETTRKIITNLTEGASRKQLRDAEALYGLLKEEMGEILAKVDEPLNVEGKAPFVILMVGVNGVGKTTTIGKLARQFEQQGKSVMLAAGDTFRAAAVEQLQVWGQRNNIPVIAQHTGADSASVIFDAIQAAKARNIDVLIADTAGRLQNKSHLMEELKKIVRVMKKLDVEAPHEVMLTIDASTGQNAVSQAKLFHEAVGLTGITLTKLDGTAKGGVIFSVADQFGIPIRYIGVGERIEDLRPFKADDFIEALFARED
Assay: not given
Conditions: cited from earlier work

For Ffh (from UniProt P0AGD7), the pKd is given as 7.80.
